# Test results reported in US20260242478A1 (published 2026).
# Molecular target: T1, PSMA Fab (006 PSMA Fab)
# T1 construct: also called Anti-PSMA Fab; anti-PSMA Fab
# Assay: clonal phage ELISA on biotinylated PSMA Fab captured on neutravidin, blocking buffer alone, anti-M13 HRP detection;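 further: clonal phage were tested as crude supernatants, and the signal reflects phage still bound to the wells after washing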
# Experimental: (§1) Clonal phage were harvested as crude supernatants and screened via standard ELISAs. […] Prior to the addition of clonal phage. wells were incubated with blocking buffer and PSMA antigen or blocking buffer alone. Without washing or aspirating, clonal phage supernatants were then added to the wells and incubated for a short time. Wells were then washed followed by detection of bound phage using a horse radish conjugated anti-M13 antibody.
row,Binder,phage binding ELISA signal on anti-PSMA Fab
1,LALACVPPWMCQGL [Phage-3654 (Peptide-180 library clone)],1.5
2,IDRHCTPSWMCYGF [Phage-3658 (Peptide-180 library clone)],1.5
3,SMIYCIPSWMCEGM [Phage-3657 (Peptide-180 library clone)],1.5
4,PSAVCVPTWMCSGF [Phage-3652 (Peptide-180 library clone)],1.5
5,VERMCEPLWMCAGL [Phage-3655 (Peptide-180 library clone)],1.5
6,ETSWCTPSWMCTGF [Phage-3656 (Peptide-180 library clone)],1.5
7,VQILCRPQWMCEGL [Phage-3653 (Peptide-180 library clone)],1.5

# Molecular target: T2, PSMA Fab (006 PSMA Fab)
# T2 construct: also called Anti-PSMA Fab
# Assay: clonal phage ELISA on captured PSMA Fab pre-incubated with PSMA antigen as competitor;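 further: crude clonal phage supernatants added to wells without washing away the PSMA competitor, bound phage detected by HRP-conjugated anti-M13 antibody, reference wells received blocking buffer only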
# Experimental: as §1
row,Binder,"Phage binding ELISA signal, Anti-PSMA Fab with PSMA antigen"
1,STSWCSPPWMCEGF [Phage-3683],0.0631
2,ADMRCVPDWMCHGF [Phage-3686],0.0874
3,PHVVCIPEWMCAGF [Phage-3681],0.068
4,DAMMCKPTWMCDGF [Phage-3675],0.0662
5,MIKMCKPYWMCEAM [Phage-3679],0.0794
6,PEARCIPMWMCERL [Phage-3676],0.0885
7,LVKHCVPDWMCSGF [Phage-3677],0.101
8,GTMKCEPAWMCEGF [Phage-3674],0.106
9,VIPKCEPKWMCHSL [Phage-3678],0.0649
10,EMSLCIPAWMCSVF [Phage-3685],0.0677
11,YTVQCVPTWMCAGL [Phage-3680],0.0609
12,ERPACVPMWMCTGL [Phage-3684],0.0929
13,LGKICSPAWMCSGF [Phage-3673],0.0608
14,DERMCRPAWMCEGL [Phage-3682],0.102

# Molecular target: T1, PSMA Fab (006 PSMA Fab)
# Assay: clonal phage ELISA on captured PSMA Fab, wells pre-incubated with PSMA antigen as competitor
# Experimental: as §1
row,Binder,phage binding ELISA signal on anti-PSMA Fab in presence of PSMA
1,LALACVPPWMCQGL [Phage-3654 (Peptide-180 library clone)],0.0897
2,IDRHCTPSWMCYGF [Phage-3658 (Peptide-180 library clone)],0.0562
3,SMIYCIPSWMCEGM [Phage-3657 (Peptide-180 library clone)],0.0844
4,PSAVCVPTWMCSGF [Phage-3652 (Peptide-180 library clone)],0.0815
5,VERMCEPLWMCAGL [Phage-3655 (Peptide-180 library clone)],0.0832
6,ETSWCTPSWMCTGF [Phage-3656 (Peptide-180 library clone)],0.0752
7,VQILCRPQWMCEGL [Phage-3653 (Peptide-180 library clone)],0.0669

# Molecular target: T3, PSMA Fab (006 PSMA Fab) (biotinylated (site not stated))
# T3 construct: also called Anti-PSMA Fab
# Assay: as above
row,Binder,"Phage binding ELISA signal, Anti-PSMA Fab in presence of PSMA"
1,PELRCHPPWMCTGF [Phage-3670 (peptide-180 library clone)],0.0997
2,LQVLCVPDWMCAGF [Phage-3668 (peptide-180 library clone)],0.091
3,AAKYCEPSWMCYGF [Phage-3672 (peptide-180 library clone)],0.105
4,HVAACVPSWMCTGF [Phage-3662 (peptide-180 library clone)],0.0842
5,EGPLCKPAWMCRGF [Phage-3663 (peptide-180 library clone)],0.0963
6,ISIKCEPQWMCDGL [Phage-3671 (peptide-180 library clone)],0.307
7,MVSHCVPLWMCAGF [Phage-3660 (peptide-180 library clone)],0.0616
8,PVPYCRPIWMCQGL [Phage-3664 (peptide-180 library clone)],0.0736
9,VAIACTPMWMCTGF [Phage-3661 (peptide-180 library clone)],0.113
10,DHKLCKPEWMCAGL [Phage-3659 (peptide-180 library clone)],0.0672
11,EVRRCEPSWMCSVV [Phage-3666 (peptide-180 library clone)],0.0749
12,YIQACKPRWMCNGF [Phage-3667 (peptide-180 library clone)],0.0874
13,GHVYCEPQWMCYGF [Phage-3669 (peptide-180 library clone)],0.0791
14,ESRFCVPAWMCAAV [Phage-3665 (peptide-180 library clone)],0.089

# Molecular target: T4, Anti-PSMA Fab
# T4 construct: also called 006 PSMA Fab
# Assay: clonal phage ELISA; biotinylated PSMA Fab on neutravidin plate, blocking buffer alone; anti-M13 HRP detection;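 further: crude clonal phage supernatants added without washing to wells pretreated with blocking buffer with or without PSMA antigen, short incubation, then washed before detecting bound phage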
# Experimental: as §1
row,Binder,"Phage binding ELISA signal, Anti-PSMA Fab"
1,MIAMCKPPWMCIGL [Phage-3687],1.47
2,SQHSCIPSWMCNGF [Phage-3695],1.45
3,ALSMCVPQWMCQGF [Phage-3690],1.46
4,TVPRCVPAWMCNWS [Phage-3694],1.45
5,DHMMCVPPWMCDGI [Phage-3692],1.46
6,NEKLCVPTWMCDGL [Phage-3697],1.45
7,LPHACKPSWMCQGF [Phage-3689],1.47
8,VNERCIPDWMCVGF [Phage-3691],1.46
9,SEHYCVPNWMCAGL [Phage-3693],1.46
10,VVVQCVPKWMCYGF [Phage-3688],1.47
11,TMQMCKPAWMCSQL [Phage-3696],1.45

# Molecular target: T2, PSMA Fab (006 PSMA Fab)
# Assay: clonal phage ELISA on biotinylated PSMA Fab captured on neutravidin plates, anti-M13 HRP detection;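 further: crude clonal phage supernatants tested, before phage were added, wells were pretreated with PSMA antigen in blocking buffer or with blocking buffer only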
# Experimental: as §1
row,Binder,"Phage binding ELISA signal, Anti-PSMA Fab"
1,STSWCSPPWMCEGF [Phage-3683],1.47
2,ADMRCVPDWMCHGF [Phage-3686],1.47
3,PHVVCIPEWMCAGF [Phage-3681],1.47
4,DAMMCKPTWMCDGF [Phage-3675],1.48
5,MIKMCKPYWMCEAM [Phage-3679],1.48
6,PEARCIPMWMCERL [Phage-3676],1.48
7,LVKHCVPDWMCSGF [Phage-3677],1.48
8,GTMKCEPAWMCEGF [Phage-3674],1.48
9,VIPKCEPKWMCHSL [Phage-3678],1.48
10,EMSLCIPAWMCSVF [Phage-3685],1.47
11,YTVQCVPTWMCAGL [Phage-3680],1.47
12,ERPACVPMWMCTGL [Phage-3684],1.47
13,LGKICSPAWMCSGF [Phage-3673],1.48
14,DERMCRPAWMCEGL [Phage-3682],1.47

# Molecular target: T3, PSMA Fab (006 PSMA Fab)
# Assay: as above
# Experimental: as §1
row,Binder,"Phage binding ELISA signal, Anti-PSMA Fab"
1,PELRCHPPWMCTGF [Phage-3670 (peptide-180 library clone)],1.49
2,LQVLCVPDWMCAGF [Phage-3668 (peptide-180 library clone)],1.49
3,AAKYCEPSWMCYGF [Phage-3672 (peptide-180 library clone)],1.48
4,HVAACVPSWMCTGF [Phage-3662 (peptide-180 library clone)],1.49
5,EGPLCKPAWMCRGF [Phage-3663 (peptide-180 library clone)],1.49
6,ISIKCEPQWMCDGL [Phage-3671 (peptide-180 library clone)],1.48
7,MVSHCVPLWMCAGF [Phage-3660 (peptide-180 library clone)],1.49
8,PVPYCRPIWMCQGL [Phage-3664 (peptide-180 library clone)],1.49
9,VAIACTPMWMCTGF [Phage-3661 (peptide-180 library clone)],1.49
10,DHKLCKPEWMCAGL [Phage-3659 (peptide-180 library clone)],1.5
11,EVRRCEPSWMCSVV [Phage-3666 (peptide-180 library clone)],1.49
12,YIQACKPRWMCNGF [Phage-3667 (peptide-180 library clone)],1.49
13,GHVYCEPQWMCYGF [Phage-3669 (peptide-180 library clone)],1.49
14,ESRFCVPAWMCAAV [Phage-3665 (peptide-180 library clone)],1.49

# Molecular target: T4, Anti-PSMA Fab
# Assay: clonal phage ELISA; biotinylated PSMA Fab on neutravidin plate, wells pre-incubated with PSMA antigen as competitor; anti-M13 HRP detection;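 further: crude clonal phage supernatants added to antigen-treated wells without a wash, incubated briefly, then bound phage read out via horse radish–conjugated anti-M13 antibody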
# Experimental: as §1
row,Binder,"Phage binding ELISA signal, Anti-PSMA Fab in presence of PSMA"
1,MIAMCKPPWMCIGL [Phage-3687],0.0954
2,SQHSCIPSWMCNGF [Phage-3695],0.154
3,ALSMCVPQWMCQGF [Phage-3690],0.0597
4,TVPRCVPAWMCNWS [Phage-3694],0.0917
5,DHMMCVPPWMCDGI [Phage-3692],0.119
6,NEKLCVPTWMCDGL [Phage-3697],0.0612
7,LPHACKPSWMCQGF [Phage-3689],0.0636
8,VNERCIPDWMCVGF [Phage-3691],0.0649
9,SEHYCVPNWMCAGL [Phage-3693],0.0995
10,VVVQCVPKWMCYGF [Phage-3688],0.0764
11,TMQMCKPAWMCSQL [Phage-3696],0.0765
